Source: PMC10700143

Assays:
[1] = biological target: W89A mutant HKU1-A spike protein ectodomain (human coronavirus HKU1 (serotype A)); assay: cryo-EM structure; 3 µM wild-type or W89A spike trimer with 300 µM 9-O-acetylated disialoside, incubated at room temperature for about 10 min before vitrification; single-particle analysis
[2] = biological target: HKU1-A spike protein ectodomain (strain Caen1), trimeric, furin cleavage site mutated, with GCN4 trimerization motif (human coronavirus HKU1 (serotype A, strain Caen1)); assay: as above
[3] = biological target: HKU1-A spike protein ectodomain (strain Caen1), trimeric, furin cleavage site mutated, with GCN4 trimerization motif (human coronavirus HKU1 (serotype A, strain Caen1)); assay: cryo-EM structure; apo: 4.3 µM HKU1 spike trimer without ligand, applied to grids at 4 °C; single-particle analysis, C3 symmetry imposed

Substance	stoichiometry N [1]	stoichiometry N [2]	stoichiometry N [3]
W89A mutant HKU1-A spike protein ectodomain (domain or fragment)	3	–	–
HKU1-A spike protein ectodomain (strain Caen1), trimeric, furin cleavage site mutated, with GCN4 trimerization motif (domain or fragment)	–	3	3
